# From the supplement of paper PMC9112550, “Optimization of the antimicrobial peptide Bac7 by deep mutational scanning” (BMC Biology, 2022)
# Tested on: Escherichia coli TOP10
# Experiment: shrunken log2 fold change of peptide-encoding DNA abundance (4.5 h post-induction vs induction); higher = less antimicrobial activity (less host growth inhibition)
# Details: time post-induction: 4.5 h; library: site-saturation at positions 5, 18, 19, 20
# 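Note: peptides expressed intracellularly from a pBAD plasmid library in pooled LB shake-flask culture, induced with 0.3% L-arabinose, DNA abundance read by NGS, three biological replicates, DESeq2 with apeglm shrinkage.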
row,Sequence,shrunken log2 fold change
1,RRIRCRPPRLPRPRPRPPDAPRP,0.354
2,RRIRCRPPRLPRPRPRPPDEPRP,1.07
3,RRIRCRPPRLPRPRPRPPESPRP,0.347
4,RRIRCRPPRLPRPRPRPPFGPRP,0.213
5,RRIRCRPPRLPRPRPRPPGPPRP,0.337
6,RRIRCRPPRLPRPRPRPPHCPRP,0.971
7,RRIRCRPPRLPRPRPRPPIMPRP,-0.0556
8,RRIRCRPPRLPRPRPRPPIYPRP,-0.253
9,RRIRCRPPRLPRPRPRPPMCPRP,-0.23
10,RRIRCRPPRLPRPRPRPPMGPRP,0.155
11,RRIRCRPPRLPRPRPRPPMWPRP,0.557
12,RRIRCRPPRLPRPRPRPPMYPRP,-0.156
13,RRIRCRPPRLPRPRPRPPQDPRP,1.08
14,RRIRCRPPRLPRPRPRPPRRPRP,0.909
15,RRIRCRPPRLPRPRPRPPTFPRP,-0.331
16,RRIRCRPPRLPRPRPRPPTGPRP,0.232
17,RRIRCRPPRLPRPRPRPPVLPRP,-0.169
18,RRIRCRPPRLPRPRPRPPWVPRP,0.204
19,RRIRCRPPRLPRPRPRPPYSPRP,-0.798
20,RRIRCRPPRLPRPRPRPQCKPRP,-0.619
21,RRIRCRPPRLPRPRPRPQEPPRP,0.359
22,RRIRCRPPRLPRPRPRPQFWPRP,0.303
23,RRIRCRPPRLPRPRPRPQHHPRP,-0.46
24,RRIRCRPPRLPRPRPRPQHKPRP,-0.543
25,RRIRCRPPRLPRPRPRPQHLPRP,-0.0397

row,Sequence,shrunken log2 fold change
1,RRIRCRPPRLPRPRPRPQIIPRP,-0.853
2,RRIRCRPPRLPRPRPRPQIMPRP,-0.352
3,RRIRCRPPRLPRPRPRPQINPRP,-0.685
4,RRIRCRPPRLPRPRPRPQKKPRP,-0.0243
5,RRIRCRPPRLPRPRPRPQMAPRP,-0.117
6,RRIRCRPPRLPRPRPRPQMQPRP,-0.347
7,RRIRCRPPRLPRPRPRPQNEPRP,-0.389
8,RRIRCRPPRLPRPRPRPQPGPRP,0.437
9,RRIRCRPPRLPRPRPRPQPPPRP,0.806
10,RRIRCRPPRLPRPRPRPQPYPRP,-0.975
11,RRIRCRPPRLPRPRPRPQQTPRP,-0.00158
12,RRIRCRPPRLPRPRPRPQQVPRP,-0.29
13,RRIRCRPPRLPRPRPRPQTHPRP,0.0541
14,RRIRCRPPRLPRPRPRPQTRPRP,0.471
15,RRIRCRPPRLPRPRPRPQVYPRP,-0.313
16,RRIRCRPPRLPRPRPRPQWCPRP,-0.158
17,RRIRCRPPRLPRPRPRPQWDPRP,-0.0642
18,RRIRCRPPRLPRPRPRPQWEPRP,0.0667
19,RRIRCRPPRLPRPRPRPQYHPRP,-0.425
20,RRIRCRPPRLPRPRPRPRAHPRP,0.361
21,RRIRCRPPRLPRPRPRPRAIPRP,0.0982
22,RRIRCRPPRLPRPRPRPRCFPRP,-0.158
23,RRIRCRPPRLPRPRPRPRCHPRP,0.0572
24,RRIRCRPPRLPRPRPRPRCVPRP,-0.0609
25,RRIRCRPPRLPRPRPRPRCYPRP,-0.532

row,Sequence,shrunken log2 fold change
1,RRIRCRPPRLPRPRPRPRDHPRP,0.197
2,RRIRCRPPRLPRPRPRPRDSPRP,-0.0484
3,RRIRCRPPRLPRPRPRPRESPRP,0.155
4,RRIRCRPPRLPRPRPRPRGFPRP,0.249
5,RRIRCRPPRLPRPRPRPRKCPRP,0.0179
6,RRIRCRPPRLPRPRPRPRMHPRP,0.066
7,RRIRCRPPRLPRPRPRPRMSPRP,0.041
8,RRIRCRPPRLPRPRPRPRNKPRP,-0.102
9,RRIRCRPPRLPRPRPRPRPHPRP,0.211
10,RRIRCRPPRLPRPRPRPRPIPRP,0.266
11,RRIRCRPPRLPRPRPRPRQPPRP,0.249
12,RRIRCRPPRLPRPRPRPRSDPRP,-0.101
13,RRIRCRPPRLPRPRPRPRSSPRP,-0.138
14,RRIRCRPPRLPRPRPRPRTPPRP,0.571
15,RRIRCRPPRLPRPRPRPRTQPRP,0.323
16,RRIRCRPPRLPRPRPRPRTSPRP,0.00938
17,RRIRCRPPRLPRPRPRPRVAPRP,0.293
18,RRIRCRPPRLPRPRPRPRWEPRP,0.342
19,RRIRCRPPRLPRPRPRPRYFPRP,-0.529
20,RRIRCRPPRLPRPRPRPRYQPRP,-0.319
21,RRIRCRPPRLPRPRPRPRYTPRP,-0.37
22,RRIRCRPPRLPRPRPRPSAEPRP,0.153
23,RRIRCRPPRLPRPRPRPSAQPRP,0.336
24,RRIRCRPPRLPRPRPRPSDEPRP,-0.126
25,RRIRCRPPRLPRPRPRPSDIPRP,-0.814

row,Sequence,shrunken log2 fold change
1,RRIRCRPPRLPRPRPRPSDNPRP,-0.66
2,RRIRCRPPRLPRPRPRPSEGPRP,0.141
3,RRIRCRPPRLPRPRPRPSEKPRP,-0.188
4,RRIRCRPPRLPRPRPRPSESPRP,0.258
5,RRIRCRPPRLPRPRPRPSFHPRP,-0.841
6,RRIRCRPPRLPRPRPRPSFRPRP,-0.439
7,RRIRCRPPRLPRPRPRPSFSPRP,-0.571
8,RRIRCRPPRLPRPRPRPSGDPRP,-0.195
9,RRIRCRPPRLPRPRPRPSGHPRP,-0.422
10,RRIRCRPPRLPRPRPRPSGLPRP,0.0264
11,RRIRCRPPRLPRPRPRPSGSPRP,-0.125
12,RRIRCRPPRLPRPRPRPSHVPRP,-0.387
13,RRIRCRPPRLPRPRPRPSHWPRP,-0.204
14,RRIRCRPPRLPRPRPRPSHYPRP,-0.349
15,RRIRCRPPRLPRPRPRPSIMPRP,-0.684
16,RRIRCRPPRLPRPRPRPSLCPRP,-0.49
17,RRIRCRPPRLPRPRPRPSLGPRP,-0.0171
18,RRIRCRPPRLPRPRPRPSLIPRP,-0.286
19,RRIRCRPPRLPRPRPRPSMPPRP,-0.558
20,RRIRCRPPRLPRPRPRPSMQPRP,-0.328
21,RRIRCRPPRLPRPRPRPSPNPRP,-0.102
22,RRIRCRPPRLPRPRPRPSSDPRP,-0.162
23,RRIRCRPPRLPRPRPRPSSGPRP,-0.011
24,RRIRCRPPRLPRPRPRPSSVPRP,-0.548
25,RRIRCRPPRLPRPRPRPSWTPRP,-0.532

row,Sequence,shrunken log2 fold change
1,RRIRCRPPRLPRPRPRPSYLPRP,-1
2,RRIRCRPPRLPRPRPRPTANPRP,0.0466
3,RRIRCRPPRLPRPRPRPTCQPRP,0.00203
4,RRIRCRPPRLPRPRPRPTEVPRP,-0.135
5,RRIRCRPPRLPRPRPRPTFKPRP,-0.148
6,RRIRCRPPRLPRPRPRPTFMPRP,-0.513
7,RRIRCRPPRLPRPRPRPTFQPRP,-0.0555
8,RRIRCRPPRLPRPRPRPTFVPRP,-0.161
9,RRIRCRPPRLPRPRPRPTGEPRP,0.156
10,RRIRCRPPRLPRPRPRPTGPPRP,0.669
11,RRIRCRPPRLPRPRPRPTGYPRP,-0.0363
12,RRIRCRPPRLPRPRPRPTHHPRP,0.126
13,RRIRCRPPRLPRPRPRPTIMPRP,-0.562
14,RRIRCRPPRLPRPRPRPTKHPRP,0.00206
15,RRIRCRPPRLPRPRPRPTMVPRP,-0.33
16,RRIRCRPPRLPRPRPRPTNNPRP,-0.619
17,RRIRCRPPRLPRPRPRPTPIPRP,0.244
18,RRIRCRPPRLPRPRPRPTQIPRP,0.452
19,RRIRCRPPRLPRPRPRPTQNPRP,0.803
20,RRIRCRPPRLPRPRPRPTSAPRP,0.18
21,RRIRCRPPRLPRPRPRPTTMPRP,0.722
22,RRIRCRPPRLPRPRPRPTTSPRP,-0.0643
23,RRIRCRPPRLPRPRPRPTVKPRP,-0.286
24,RRIRCRPPRLPRPRPRPTVLPRP,-0.174
25,RRIRCRPPRLPRPRPRPTVTPRP,-0.208

row,Sequence,shrunken log2 fold change
1,RRIRCRPPRLPRPRPRPTVVPRP,-0.127
2,RRIRCRPPRLPRPRPRPTYCPRP,-0.279
3,RRIRCRPPRLPRPRPRPTYEPRP,-0.717
4,RRIRCRPPRLPRPRPRPTYHPRP,-0.815
5,RRIRCRPPRLPRPRPRPTYRPRP,0.0231
6,RRIRCRPPRLPRPRPRPVALPRP,0.0824
7,RRIRCRPPRLPRPRPRPVCHPRP,-0.294
8,RRIRCRPPRLPRPRPRPVCKPRP,-0.238
9,RRIRCRPPRLPRPRPRPVCQPRP,-0.102
10,RRIRCRPPRLPRPRPRPVDDPRP,0.157
11,RRIRCRPPRLPRPRPRPVEVPRP,-0.0243
12,RRIRCRPPRLPRPRPRPVFMPRP,-0.359
13,RRIRCRPPRLPRPRPRPVFSPRP,-0.385
14,RRIRCRPPRLPRPRPRPVFWPRP,0.138
15,RRIRCRPPRLPRPRPRPVHFPRP,0.128
16,RRIRCRPPRLPRPRPRPVHQPRP,0.11
17,RRIRCRPPRLPRPRPRPVIEPRP,-0.141
18,RRIRCRPPRLPRPRPRPVIQPRP,-0.468
19,RRIRCRPPRLPRPRPRPVKMPRP,-0.248
20,RRIRCRPPRLPRPRPRPVKVPRP,-0.181
21,RRIRCRPPRLPRPRPRPVLCPRP,-0.112
22,RRIRCRPPRLPRPRPRPVLYPRP,-0.432
23,RRIRCRPPRLPRPRPRPVNGPRP,1.74
24,RRIRCRPPRLPRPRPRPVNSPRP,-0.418
25,RRIRCRPPRLPRPRPRPVPHPRP,0.0468
